{"source": "paper PMC10783520", "about": "“Mutual promotion of co-condensation of KRAS G-quadruplex and a well-folded protein HMGB1”", "conditions_in_all_cases": "protein: recombinant; intramolecular parallel G4, K+", "key": {"[1]": {"molecular_target": "T1, HMGB1 A box (termed HMGB1) (UniProt P09429 9-78)", "T1 sequence": "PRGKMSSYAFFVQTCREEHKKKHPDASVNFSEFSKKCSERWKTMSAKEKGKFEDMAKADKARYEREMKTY", "assay": "fluorescence titration (intrinsic HMGB1 fluorescence, 335 nm); K+; K+-containing buffer; 20 or 200 mM K+ in Fig S9 titrations (10 uM HMGB1); full buffer, pH and temperature of binding assays not in material (phase-separation assays: 10 mM HEPES pH 7.4, 20 mM K+, 10% PEG8K)"}, "[2]": {"molecular_target": "T1, HMGB1 A box (termed HMGB1)", "assay": "fluorescence titration; 20 mM K+; K+-containing buffer; 20 or 200 mM K+ in Fig S9 titrations (10 uM HMGB1); full buffer, pH and temperature of binding assays not in material (phase-separation assays: 10 mM HEPES pH 7.4, 20 mM K+, 10% PEG8K)"}, "[3]": {"molecular_target": "T1, HMGB1 A box (termed HMGB1)", "assay": "ITC; K+; K+-containing buffer; 20 or 200 mM K+ in Fig S9 titrations (10 uM HMGB1); full buffer, pH and temperature of binding assays not in material (phase-separation assays: 10 mM HEPES pH 7.4, 20 mM K+, 10% PEG8K)"}, "[4]": {"molecular_target": "T1, HMGB1 A box (termed HMGB1)", "assay": "fluorescence titration; 200 mM K+; K+-containing buffer; 20 or 200 mM K+ in Fig S9 titrations (10 uM HMGB1); full buffer, pH and temperature of binding assays not in material (phase-separation assays: 10 mM HEPES pH 7.4, 20 mM K+, 10% PEG8K)"}}, "data": [{"binder": "AGGGCGGTGTGGGAAGAGGGAA (structured_DNA)", "note": "[22R (GQKRAS)]", "values": [{"measurement": "Kd", "setting": "[1]", "result": 4.08, "unit": "µM"}, {"measurement": "Kd", "setting": "[2]", "result": 3.24, "unit": "µM"}, {"measurement": "Kd", "setting": "[3]", "result": 7.04, "unit": "µM"}, {"measurement": "Kd", "setting": "[4]", "result": 4.24, "unit": "µM"}]}]}
